For two molecules, Kd results are on record in paper PMC10967385, “Essential role of obscurin kinase-1 in cardiomyocyte coupling via N-cadherin phosphorylation” (JCI Insight, 2024).

Positions count from the first letter of the chain named.

Usually Kd stands for the free concentration of one partner at which half of the binding sites on the other are occupied at equilibrium, for simple one-to-one binding. A higher Kd goes with a looser complex.

The experiment deals with T1, MBP-p120-catenin(311-747), middle portion of p120-catenin containing armadillo domains 1-8 fused to maltose … (UniProt P30999 311-747).
T1 construct: p120-catenin, middle portion containing armadillo domains 1-8, aa 311-747; source: recombinant protein (source in Supplemental Methods)
T1 sequence (looked up): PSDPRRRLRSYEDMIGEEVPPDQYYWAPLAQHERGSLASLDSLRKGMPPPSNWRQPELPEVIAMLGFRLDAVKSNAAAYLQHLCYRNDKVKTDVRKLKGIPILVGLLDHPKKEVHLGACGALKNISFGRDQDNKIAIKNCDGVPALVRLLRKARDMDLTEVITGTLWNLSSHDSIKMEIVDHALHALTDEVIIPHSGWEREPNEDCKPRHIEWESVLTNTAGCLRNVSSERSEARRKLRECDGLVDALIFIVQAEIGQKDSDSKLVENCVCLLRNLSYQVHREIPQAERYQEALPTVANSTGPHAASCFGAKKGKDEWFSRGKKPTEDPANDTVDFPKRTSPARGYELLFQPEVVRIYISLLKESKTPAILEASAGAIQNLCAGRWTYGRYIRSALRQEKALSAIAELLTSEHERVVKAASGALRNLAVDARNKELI
Put plainly: ITC; VP-ITC, 37°C, PBS pH 7.4; GST-Ncad ligands (80-100 μM) titrated into 10 μM MBP-p120-catenin(311-747) in the sample chamber; control titrations subtracted; 1-site binding model; average of 3 replicates; number of sites fixed to 1 for the SE ligand. Particulars: both partners purified. Background: ITC needs no label: the signal is the heat of the interaction.

B1: GST-Ncad(746-906)-WT, recombinant GST-tagged cytoplasmic domain of N-cadherin (domain or fragment, mouse, UniProt P15116 746-906, looked up)
chain: MKRRDKERQAKQLLIDPEDDVRDNILKYDEEGGGEEDQDYDLSQLQQPDTVEPDAIKPVGIRRLDERPIHAEPQYPVRSAAPHPGDIGDFINEGLKAADNDPTAPPYDSLLVFDYEGSGSTAGSLSSLNSSSSGGDQDYDYLNDWGPRFKKLADMYGGGDD
notes: source: recombinant protein (source in Supplemental Methods)
B1 gave a dissociation constant (Kd) of 1.25 µM.

B2: GST-Ncad(746-906)-SE, phosphomimic Ser-788-Glu GST-tagged cytoplasmic domain of N-cadherin (domain or fragment, mouse, UniProt P15116 746-906, looked up)
chain: B1 chain with S43E
notes: as for B1
The molecule B2 gave an equilibrium dissociation constant (Kd) of 197 µM. This Kd is about 160-fold higher than that of the molecule before.
